Where a chain is given by its changes, count along the chain named.
Key:
Experiment in all cases: SPR, antibody captured, C2 as analyte;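 also: biacore at 37 °C, anti-C2 mAbs held by immobilised goat anti-human IgG, C2 alanine or serine mutants injected, double-referenced sensorgrams fitted to a 1:1 kinetic or steady-state model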
human C2 R434A = molecular target: T1, human C2 R434A (human, UniProt P06681 21-752)
T1 sequence: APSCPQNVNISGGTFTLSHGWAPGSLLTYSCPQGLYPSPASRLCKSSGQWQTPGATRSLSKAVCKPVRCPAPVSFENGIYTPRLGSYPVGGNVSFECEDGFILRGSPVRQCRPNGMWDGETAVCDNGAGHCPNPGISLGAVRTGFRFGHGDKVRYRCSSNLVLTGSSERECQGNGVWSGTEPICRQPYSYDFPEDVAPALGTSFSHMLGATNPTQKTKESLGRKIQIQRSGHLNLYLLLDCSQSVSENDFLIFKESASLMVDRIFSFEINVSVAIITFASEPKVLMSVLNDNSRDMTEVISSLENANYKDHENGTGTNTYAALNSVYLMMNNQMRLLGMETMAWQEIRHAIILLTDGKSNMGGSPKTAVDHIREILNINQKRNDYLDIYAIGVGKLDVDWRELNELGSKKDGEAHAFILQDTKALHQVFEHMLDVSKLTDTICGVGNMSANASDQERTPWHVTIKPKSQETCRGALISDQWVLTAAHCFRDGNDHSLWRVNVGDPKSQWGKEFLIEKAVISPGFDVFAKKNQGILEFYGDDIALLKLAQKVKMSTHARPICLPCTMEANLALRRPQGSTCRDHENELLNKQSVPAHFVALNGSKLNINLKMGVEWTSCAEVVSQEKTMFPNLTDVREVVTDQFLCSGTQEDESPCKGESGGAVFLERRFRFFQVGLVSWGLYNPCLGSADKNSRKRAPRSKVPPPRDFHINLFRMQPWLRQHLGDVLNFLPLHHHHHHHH

human C2 S473A = molecular target: T2, human C2 S473A (human, UniProt P06681 21-752)
T2 sequence: T1 sequence with A414R, S453A

human C2 K415A = molecular target: T3, human C2 K415A (human, UniProt P06681 21-752)
T3 sequence: T1 sequence with K395A, A414R

human C2 N268A = molecular target: T4, human C2 N268A (human, UniProt P06681 21-752)
T4 sequence: T1 sequence with N248A, A414R

B1: RF16-242 (antibody, human IgG4 S228P, lambda, V domains shown)
VH: EVQLLQSGAEVKKPGESLKISCKGSGYSFTSYWIGWVRQMPGKGLEWMGIIYPGDSDTRYSPSFQGQVTISADKSISTAYLQWSSLKASDTAMYYCARRGHYGDYFDYWGQGTLVTVSS
VL: SYELTQPPSVSVSPGQTARITCSGDALPKKYAYWYHQKSGQAPVLVIYEDRRRPSEIPERFSGSSSGTMATLTITGAQVEDEGVYFCYSRDRAGNQRVFGGGTQLTVLG
notes: pH-dependent anti-C2 antibody from a phage display library
Kd (human C2 R434A): 0.0989 µM
Kd (human C2 S473A): 0.0155 µM
Kd (human C2 K415A): 0.0041 µM
Kd (human C2 N268A): 0.0148 µM

Source: patent US20220332804A1 (CSL INNOVATION, published 2022)
